Results taken from US20250257133A1 (ADAGENE PTE, published 2025).

How the values were obtained:
[1] = molecular target: T1, B7H3 on MDA-MB-231 cells (UniProt Q5ZPR3 29-534, limits assumed); experiment: flow cytometry, MDA-MB-231 cells
T1 construct: whole, on cells
T1 sequence (looked up): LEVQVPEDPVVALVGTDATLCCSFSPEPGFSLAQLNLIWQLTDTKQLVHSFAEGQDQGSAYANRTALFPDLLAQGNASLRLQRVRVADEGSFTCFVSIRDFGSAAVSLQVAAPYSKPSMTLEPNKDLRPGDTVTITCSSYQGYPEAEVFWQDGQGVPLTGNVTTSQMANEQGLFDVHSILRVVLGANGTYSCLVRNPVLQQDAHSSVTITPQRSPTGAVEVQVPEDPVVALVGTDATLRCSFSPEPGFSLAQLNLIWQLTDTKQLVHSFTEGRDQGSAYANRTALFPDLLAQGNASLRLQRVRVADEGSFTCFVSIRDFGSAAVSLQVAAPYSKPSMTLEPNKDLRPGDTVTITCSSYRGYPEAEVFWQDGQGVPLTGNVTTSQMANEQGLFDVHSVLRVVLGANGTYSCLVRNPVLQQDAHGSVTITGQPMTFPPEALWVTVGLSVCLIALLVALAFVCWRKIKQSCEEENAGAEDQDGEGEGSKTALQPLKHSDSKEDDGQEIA
Description: An isotype antibody was included as a negative control.
MDA-MB-231 cells were cultured and seeded in 96-well plates at 1.0×10⁵ cells/well and incubated with serially diluted test BsAbs for 60 minutes at 4° C. in 2% FBS/RPMI1640 buffer. Next, the cells were washed twice with DPBS and further incubated with secondary APC-anti-human IgG Fe antibody (1:400 dilution) for 30 minutes at 4° C. Finally, the cells were washed twice with DPBS and resuspended in FACS buffer for flow cytometry analysis. For analysis, the MFI values versus concentrations were plotted using FlowJo 10 software (FlowJo LLC) and the data were further fitted with four-parameter non-linear regression to obtain EC₅₀ values by GraphPad Prism version 7 for Windows.

[2] = molecular target: Human CD28 (ELISAs of Examples 4 and 13) (human, UniProt P10747 19-152, limits assumed); experiment: ELISA
[3] = molecular target: Mouse CD28 (ELISA of Example 13) (mouse, UniProt P31041 20-150, limits assumed); experiment: ELISA
Chain of Mouse CD28 (ELISA of Example 13) (P31041 20-150 limits assumed): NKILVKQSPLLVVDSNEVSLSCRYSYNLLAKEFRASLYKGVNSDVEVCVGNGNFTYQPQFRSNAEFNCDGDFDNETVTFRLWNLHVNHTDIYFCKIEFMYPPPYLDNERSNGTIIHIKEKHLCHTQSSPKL

[4] = molecular target: T2, Mouse CD28 on cells (mouse, UniProt P31041 20-218); experiment: flow cytometry on mouse T cells, median fluorescence intensity; drawn table; design: AUC: unit not given beside the values
T2 construct: also called CD28 on mouse T cells
T2 sequence (P31041 20-218 limits assumed): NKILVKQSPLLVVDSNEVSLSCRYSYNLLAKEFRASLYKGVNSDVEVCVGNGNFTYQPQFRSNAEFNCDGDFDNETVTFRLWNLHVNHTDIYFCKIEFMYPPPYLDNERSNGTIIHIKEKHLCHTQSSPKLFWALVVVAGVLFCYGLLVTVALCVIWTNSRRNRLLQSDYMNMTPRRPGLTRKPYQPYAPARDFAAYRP

B1: TY21601 (antibody, V domains shown)
VH: EVQLVESGGGLVQPGGSLRLSCAASGFTFSGYGIHWVRQAPGKGLEWIGWISPSGGDTKYAQKFQGRVTISRDNSKNTLYLQLNSLRAEDTAVYYCARGGTVVYFDYWGQGTLVTVSS
VL: DIQLTQSPSSLSASVGDRVTITCRASQSIRKYLNWYQQKPGKAPKLLIYAASTLQSGVPSRFSGSGSGTDFTLTISSLQPEDFATYFCSQGTHVPFTFGQGTKVEIK
notes: also called parental anti-B7H3 mAb; B7H3 IgG
[1]
  EC50: 0.453 nM

B2: TY30120 (bispecific antibody, human IgG1, kappa, N297A)
light: DIQLTQSPSSLSASVGDRVTITCRASQSIRKYLNWYQQKPGKAPKLLIYAASTLQSGVPSRFSGSGSGTDFTLTISSLQPEDFATYFCSQGTHVPFTFGQGTKVEIKRTVAAPSVFIFPPSDEQLKSGTASVVCLLNNFYPREAKVQWKVDNALQSGNSQESVTEQDSKDSTYSLSSTLTLSKADYEKHKVYACEVTHQGLSSPVTKSFNRGEC
heavy: EVQLVESGGGLVQPGGSLRLSCAASGFTFSGYGIHWVRQAPGKGLEWIGWISPSGGDTKYAQKFQGRVTISRDNSKNTLYLQLNSLRAEDTAVYYCARGGTVVYFDYWGQGTLVTVSSASTKGPSVFPLAPSSKSTSGGTAALGCLVKDYFPEPVTVSWNSGALTSGVHTFPAVLQSSGLYSLSSVVTVPSSSLGTQTYICNVNHKPSNTKVDKKVEPKSCDKTHTCPPCPAPELLGGPSVFLFPPKPKDTLMISRTPEVTCVVVDVSHEDPEVKFNWYVDGVEVHNAKTKPREEQYASTYRVVSVLTVLHQDWLNGKEYKCKVSNKALPAPIEKTISKAKGQPREPQVYTLPPSRKKLTKNQVKLTCLVKGFYPSDIAVEWESNGQPENNYKTTPPVLDCDGSFFLYSKLTVDKSRWQQGNVFSCSVMHEALHNHYTQKSLSLSPGK
chain: EVQLVESGGGLVQPGGSLRLSCAASGFSLSTSGVGVSWIRQAPGKGLEWIGEIYHSGSTYYSPSLKSRVTISRDNSKNTLYLQLNSLRAEDTAVYYCARYGYYYYDFDYWGQGTLVTVSSGGGGSGGGGSGGGGSGGGGSDIQLTQSPSSLSASVGDRVTITCRASQSVDFHGISFLHWYQQKPGKAPKLLIYAASSLQSGVPSRFSGSGSGTDFTLTISSLQPEDFATYYCQQSYRSPRTFGQGTKVEIKEPKSSDKTHTCPPCPAPELLGGPSVFLFPPKPKDTLMISRTPEVTCVVVDVSHEDPEVKFNWYVDGVEVHNAKTKPREEQYASTYRVVSVLTVLHQDWLNGKEYKCKVSNKALPAPIEKTISKAKGQPREPQVYTDPPSRDELTKNQVSLTCLVDGFYPSDIAVEWESNGQPENCYKTTPPVLDSDGSFFLYSKLTVDKSRWQQGNVFSCSVMHEALHNHYTQDSLSLSPGK
notes: anti-B7H3 Fab x CD28 scFv BC10599 (VH-VL)-Fc
[2]
  EC50: 3.03 nM
[3]
  EC50: 74.2 nM
[4]
  AUC: 4380
  EC50: 145 nM
  Max MFI: 2710

B3: TY27556 (bispecific antibody, human IgG1, kappa, N297A)
light: DIQLTQSPSSLSASVGDRVTITCRASQSIRKYLNWYQQKPGKAPKLLIYAASTLQSGVPSRFSGSGSGTDFTLTISSLQPEDFATYFCSQGTHVPFTFGQGTKVEIKRTVAAPSVFIFPPSDEQLKSGTASVVCLLNNFYPREAKVQWKVDNALQSGNSQESVTEQDSKDSTYSLSSTLTLSKADYEKHKVYACEVTHQGLSSPVTKSFNRGEC
heavy: EVQLVESGGGLVQPGGSLRLSCAASGFTFSGYGIHWVRQAPGKGLEWIGWISPSGGDTKYAQKFQGRVTISRDNSKNTLYLQLNSLRAEDTAVYYCARGGTVVYFDYWGQGTLVTVSSASTKGPSVFPLAPSSKSTSGGTAALGCLVKDYFPEPVTVSWNSGALTSGVHTFPAVLQSSGLYSLSSVVTVPSSSLGTQTYICNVNHKPSNTKVDKKVEPKSCDKTHTCPPCPAPELLGGPSVFLFPPKPKDTLMISRTPEVTCVVVDVSHEDPEVKFNWYVDGVEVHNAKTKPREEQYASTYRVVSVLTVLHQDWLNGKEYKCKVSNKALPAPIEKTISKAKGQPREPQVYTLPPSRKKLTKNQVKLTCLVKGFYPSDIAVEWESNGQPENNYKTTPPVLDCDGSFFLYSKLTVDKSRWQQGNVFSCSVMHEALHNHYTQKSLSLSPGK
chain: DIQLTQSPSSLSASVGDRVTITCRASQSVDFHGISFLHWYQQKPGKAPKLLIYAASSLQSGVPSRFSGSGSGTDFTLTISSLQPEDFATYYCQQSYRSPRTFGQGTKVEIKGGGGSGGGGSGGGGSGGGGSEVQLVESGGGLVQPGGSLRLSCAASGFSLSTGGVGVSWIRQAPGKGLEWIGEIYHSGSTYYSPSLKSRVTISRDNSKNTLYLQLNSLRAEDTAVYYCARYEYYYYDFDYWGQGTLVTVSSEPKSSDKTHTCPPCPAPELLGGPSVFLFPPKPKDTLMISRTPEVTCVVVDVSHEDPEVKFNWYVDGVEVHNAKTKPREEQYASTYRVVSVLTVLHQDWLNGKEYKCKVSNKALPAPIEKTISKAKGQPREPQVYTDPPSRDELTKNQVSLTCLVDGFYPSDIAVEWESNGQPENCYKTTPPVLDSDGSFFLYSKLTVDKSRWQQGNVFSCSVMHEALHNHYTQDSLSLSPGK
notes: also called anti-B7H3xCD28 BsAb
[1]
  EC50: 12.8 nM
  fold reduction of binding activity against TY21601: ~28 fold

B4: TY29021 (bispecific antibody, human IgG1, kappa, N297A)
light: DIQLTQSPSSLSASVGDRVTITCRASQSIRKYLNWYQQKPGKAPKLLIYAASTLQSGVPSRFSGSGSGTDFTLTISSLQPEDFATYFCSQGTHVPFTFGQGTKVEIKRTVAAPSVFIFPPSDEQLKSGTASVVCLLNNFYPREAKVQWKVDNALQSGNSQESVTEQDSKDSTYSLSSTLTLSKADYEKHKVYACEVTHQGLSSPVTKSFNRGEC
heavy: EVQLVESGGGLVQPGGSLRLSCAASGFTFSGYGIHWVRQAPGKGLEWIGWISPSGGDTKYAQKFQGRVTISRDNSKNTLYLQLNSLRAEDTAVYYCARGGTVVYFDYWGQGTLVTVSSASTKGPSVFPLAPSSKSTSGGTAALGCLVKDYFPEPVTVSWNSGALTSGVHTFPAVLQSSGLYSLSSVVTVPSSSLGTQTYICNVNHKPSNTKVDKKVEPKSCDKTHTCPPCPAPELLGGPSVFLFPPKPKDTLMISRTPEVTCVVVDVSHEDPEVKFNWYVDGVEVHNAKTKPREEQYASTYRVVSVLTVLHQDWLNGKEYKCKVSNKALPAPIEKTISKAKGQPREPQVYTLPPSRKKLTKNQVKLTCLVKGFYPSDIAVEWESNGQPENNYKTTPPVLDCDGSFFLYSKLTVDKSRWQQGNVFSCSVMHEALHNHYTQKSLSLSPGK
chain: EVQLVESGGGLVQPGGSLRLSCAASGFSLSTGGVGVSWIRQAPGKGLEWIGEIYHSGSTYYSPSLKSRVTISRDNSKNTLYLQLNSLRAEDTAVYYCARYEYYYYDFDYWGQGTLVTVSSGGGGSGGGGSGGGGSGGGGSDIQLTQSPSSLSASVGDRVTITCRASQSVDFHGISFLHWYQQKPGKAPKLLIYAASSLQSGVPSRFSGSGSGTDFTLTISSLQPEDFATYYCQQSYRSPRTFGQGTKVEIKEPKSSDKTHTCPPCPAPELLGGPSVFLFPPKPKDTLMISRTPEVTCVVVDVSHEDPEVKFNWYVDGVEVHNAKTKPREEQYASTYRVVSVLTVLHQDWLNGKEYKCKVSNKALPAPIEKTISKAKGQPREPQVYTDPPSRDELTKNQVSLTCLVDGFYPSDIAVEWESNGQPENCYKTTPPVLDSDGSFFLYSKLTVDKSRWQQGNVFSCSVMHEALHNHYTQDSLSLSPGK
notes: anti-B7H3 Fab x CD28 scFv WT (VH-VL)-Fc; also called TY29021 (WT)
[2]
  EC50: 36.4 nM
[4]
  AUC: 549
  Max MFI: 364

B5: TY30121 (bispecific antibody, human IgG1, kappa, N297A)
light: DIQLTQSPSSLSASVGDRVTITCRASQSIRKYLNWYQQKPGKAPKLLIYAASTLQSGVPSRFSGSGSGTDFTLTISSLQPEDFATYFCSQGTHVPFTFGQGTKVEIKRTVAAPSVFIFPPSDEQLKSGTASVVCLLNNFYPREAKVQWKVDNALQSGNSQESVTEQDSKDSTYSLSSTLTLSKADYEKHKVYACEVTHQGLSSPVTKSFNRGEC
heavy: EVQLVESGGGLVQPGGSLRLSCAASGFTFSGYGIHWVRQAPGKGLEWIGWISPSGGDTKYAQKFQGRVTISRDNSKNTLYLQLNSLRAEDTAVYYCARGGTVVYFDYWGQGTLVTVSSASTKGPSVFPLAPSSKSTSGGTAALGCLVKDYFPEPVTVSWNSGALTSGVHTFPAVLQSSGLYSLSSVVTVPSSSLGTQTYICNVNHKPSNTKVDKKVEPKSCDKTHTCPPCPAPELLGGPSVFLFPPKPKDTLMISRTPEVTCVVVDVSHEDPEVKFNWYVDGVEVHNAKTKPREEQYASTYRVVSVLTVLHQDWLNGKEYKCKVSNKALPAPIEKTISKAKGQPREPQVYTLPPSRKKLTKNQVKLTCLVKGFYPSDIAVEWESNGQPENNYKTTPPVLDCDGSFFLYSKLTVDKSRWQQGNVFSCSVMHEALHNHYTQKSLSLSPGK
chain: EVQLVESGGGLVQPGGSLRLSCAASGFSLSTSGVGVGWIRQAPGKGLEWIGEIYHSGSTYYNPSLKSRVTISRDNSKNTLYLQLNSLRAEDTAVYYCARYKYDYYDFDYWGQGTLVTVSSGGGGSGGGGSGGGGSGGGGSDIQLTQSPSSLSASVGDRVTITCRASQSVDFHGISFLHWYQQKPGKAPKLLIYAASSLQSGVPSRFSGSGSGTDFTLTISSLQPEDFATYYCQQSYRSPRTFGQGTKVEIKEPKSSDKTHTCPPCPAPELLGGPSVFLFPPKPKDTLMISRTPEVTCVVVDVSHEDPEVKFNWYVDGVEVHNAKTKPREEQYASTYRVVSVLTVLHQDWLNGKEYKCKVSNKALPAPIEKTISKAKGQPREPQVYTDPPSRDELTKNQVSLTCLVDGFYPSDIAVEWESNGQPENCYKTTPPVLDSDGSFFLYSKLTVDKSRWQQGNVFSCSVMHEALHNHYTQDSLSLSPGK
notes: anti-B7H3 Fab x CD28 scFv BC10601 (VH-VL)-Fc
[2]
  EC50: 5.73 nM
[3]
  EC50: 108 nM
[4]
  AUC: 4620
  EC50: 142 nM
  Max MFI: 2860
